Results on five molecules are retold here after patent US8673289B2, “Attenuated uracil auxotroph of an apicomplexan and use thereof” (priority 2007, dated 2014).

In one experiment the test system is cps1 and cps2 mutants. Description: pyrimidine dependence of cps1 and cps2 replication and plaque formation. It is filed as cell-based, Toxoplasma gondii. Particulars: relatively low (thymine, thymidine: moderate) concentrations in medium. From the text: However, all of these mutants are somewhat “leaky” in that there was not an absolute growth (replication) dependence on uracil addition to the growth medium for replication. Each of these mutants grows at a moderate (½ of normal) growth rate for the first 2 days following infection of a host cell producing vacuoles that contained 16 to 32 parasites by 3 days post infection. In contrast, RH parasites are lysed out of their primary vacuoles at this time (3 days, >64 parasites). However, the cps mutants slow after 3 days and many parasites never (about ⅓) break out of their primary vacuole. If the primary vacuole breaks, a few parasites can be detected at the site of infection but the infection site always involves a small zone of infection that never forms a visible plaque in a standard 7 day plaque assay. To quantitate growth of these mutants, HFF flasks were inoculated with […] or cps2 parasites (about a multiplicity of infection (MOI) of 1 parasite per 20 HFF cells). After 2 hours of attachment and invasion (all of these mutants have normal attachment and invasion phenotypes as scored by counting percent entered parasites into host cells as a function of time post-inoculation), different concentrations of different pyrimidine compound was added to parallel infected HFF flasks. As a function of time post pyrimidine addition (t=0 hour) the number of parasites per vacuole was scored for 50 vacuoles as described by Fox et al. ((1999) supra). The number of parasite doublings was calculated based on 1 parasite entering each primary vacuole. Thus, 1 doubling=2 parasites per vacuole, 3 doublings=8 parasites per vacuole, and 5 doublings=32 parasites per vacuole. The pyrimidine dependence of cps1 and cps2 replication (doublings of parasites in the vacuole) was plotted graphically. […] The response to thymine and thymidine was additionally informative about the cause of the growth defect in cps1 and cps2. […] This is believed to be caused by the putative defect in the cps1 and cps2 mutants which is a reduced “pool” size of UMP. If UMP pools (ultimately used for RNA and DNA synthesis) are lowered it follows that a resulting decrease in TMP pools is expected since UMP is the precursor of TMP in T. gondii and all other apicomplexan parasites which normally lack TK activity. However, since cps1 and cps2 now express a TK activity carried into the parasite by the p53KOX3-1R plasmid, exemplified by sensitivity of these mutants to ganciclovir (specific to HSV TK), feeding parasites either thymine or thymidine is expected to increase TMP pools. Thus, it appears that moderate levels of thymine or thymidine partially rescue growth of cps1 and cps2 by restoring TMP pools. […] Since the parasite has no mechanism to convert TMP back to UMP there is still a defect in the UMP pool in cps1 and cps2 even with added thymine or thymidine and rescue is never complete. The ability of cps1 and cps2 mutants to form plaques on HFF monolayers in the standard 7 day assay paralleled the pyrimidine dependence of parasite replication in vacuoles.
The cps1 and cps2 mutants were inoculated intraperitoneally (i.p.) into balb/c mice to measure parasite virulence compared to virulent RH parasites. Both mutant cps1 and cps2 had equal virulence as RH parasites in balb/c mice (Jackson Labs), killing all mice within 10 days of i.p. inoculation (group size was four mice per parasite strain). Only 100 parasites (˜50 PFU) of each parasite strain was needed to kill all mice in each group. This pattern of virulence can be understood by re-examining the pyrimidine dependence of cps1 and cps2 growth. Uridine is believed to be the pyrimidine responsible for virulence of cps1 and cps2 in mice. Only 5 μM uridine completely rescues normal plaque size of cps1 and cps2 in vitro. Plasma concentrations of uridine in mice are approximately 5 to 10 μM.

The next experiment relates to cps1-1 and cps2-1. Description: pyrimidine rescue of cps1-1 and cps2-1 replication and plaque formation. The format is cell-based, Toxoplasma gondii. Particulars: 36-hour replication assay, HFF. As to the method:
No pyrimidine compound at less than 25 μM could rescue plaque formation of cps1-1 or cps2-1. […] Uridine was quite poor at rescue of plaque formation in cps1-1 and cps2-1.
A more detailed growth response to pyrimidine, measured as parasite replications (doublings) was performed for cps1-1 and cps2-1 and compared to the results previously obtained for […]. […] Uridine rescue was poor, with a slow restoration of growth at very high amounts, >400 μM. Deoxyuridine rescue was significant, but again, full growth rate was not restored at any concentration of deoxyuridine. Rescue with uracil was robust, but only in a limited range of concentration. Full restoration of growth rate in cps1-1 and cps2-1 was possible only with uracil added between 200 and 400 μM. […] This phenotype can only be observed in T. gondii pyrimidine auxotroph mutants, not in wild-type parasites with intact de novo pyrimidine synthesis pathways.
The pyrimidine growth dependence of mutant cps1-1 on the pyrimidine salvage pathway was further documented in thymidine interference experiments. Mutant cps1-1 plaques well in 250 μM uracil or deoxyuridine, but not in 1000 μM thymidine. Since thymidine at 1000 μM is known to inhibit approximately 90% of the parasite nucleoside phosphorylase activity specific for cleavage of deoxyuridine (Iltzsch, (1993) J. Euk. Micro. 40:24-28), growth of cps1-1 was tested in combinations of 1000 μM thymidine and 250 μM uracil or 250 μM deoxyuridine. All pyrimidine salvage in T. gondii must pass through uracil and UPRT conversion of uracil to UMP. In contrast, thymidine has no effect on UPRT activity. Thus, if growth of cps1-1 were dependent on deoxyuridine supplementation then replication in this condition may be inhibited by co-supplementing with 1000 μM thymidine. […] Thus, when cps1-1 is grown in deoxyuridine the parasite strictly requires nucleoside phosphorylase activity to cleave deoxyuridine for growth. […] Thus, cps1-1 and cps2-1 rely strictly on pyrimidine salvage enzymes for growth and further, the HFF host cell in vitro cannot supply sufficient pyrimidines for growth of cps1-1 or cps2-1. […] Such potential inhibitors can only be identified using a pyrimidine auxotroph such as provided in the instant invention.
To assess reversion, 10^6 to 10^7 cps1-1 or cps2-1 parasites were periodically inoculated into HFF flasks supplemented with 5 μM uridine. This concentration of uridine is sufficient to rescue the parent strains (cps1 and cps2) of cps1-1 and cps2-1.

The subject of another experiment is E. coli CPS. Particulars: cited from earlier work.

Residue numbers refer to the chain shown, from its start. Names and notes keep the numbering of the source. Read-outs that look alike come from different tables or passages of the source.

Consider `Nc1ccn([C@H]2C[C@H](O)[C@@H](CO)O2)c(=O)n1` [deoxycytidine], for which, in the experiment with cps1 and cps2 mutants, the “rescue of growth rate / replication of cps1 and cps2” value is “completely rescued”. Also, the “rescue of replication (doublings) of cps1-1 and cps2-1” value in the experiment with cps1-1 and cps2-1 is “remained as a single non-replicated parasite”.

B1: E. c. G359F: E. coli CPS with ammonia tunnel wall mutation G359F (protein, UniProt P0A6F1 1-382; P00968 2-1073, looked up, variant G359F)
Carbamoyl phosphate synthase … 1: MIKSALLVLEDGTQFHGRAIGATGSAVGEVVFNTSMTGYQEILTDPSYSRQIVTLTYPHIGNVGTNDADEESSQVHAQGLVIRDLPLIASNFRNTEDLSSYLKRHNIVAIADIDTRKLTRLLREKGAQNGCIIAGDNPDAALALEKARAFPGLNGMDLAKEVTTAEAYSWTQGSWTLTGGLPEAKKEDELPFHVVAYDFGAKRNILRMLVDRGCRLTIVPAQTSAEDVLKMNPDGIFLSNGPGDPAPCDYAITAIQKFLETDIPVFGICLGHQLLALASGAKTVKMKFGHHGGNHPVKDVEKNVVMITAQNHGFAVDEATLPANLRVTHKSLFDGTLQGIHRTDKPAFSFQGHPEASPFPHDAAPLFDHFIELIEQYRKTAK
Carbamoyl phosphate synthase … 2: PKRTDIKSILILGAGPIVIGQACEFDYSGAQACKALREEGYRVILVNSNPATIMTDPEMADATYIEPIHWEVVRKIIEKERPDAVLPTMGGQTALNCALELERQGVLEEFGVTMIGATADAIDKAEDRRRFDVAMKKIGLETARSGIAHTMEEALAVAADVGFPCIIRPSFTMGGSGGGIAYNREEFEEICARGLDLSPTKELLIDESLIGWKEYEMEVVRDKNDNCIIVCSIENFDAMGIHTGDSITVAPAQTLTDKEYQIMRNASMAVLREIGVETGGSNVQFAVNPKNGRLIVIEMNPRVSRSSALASKATGFPIAKVAAKLAVGYTLDELMNDITGGRTPASFEPSIDYVVTKIPRFNFEKFAGANDRLTTQMKSVGEVMAIGRTQQESLQKALRGLEVGATGFDPKVSLDDPEALTKIRRELKDAGADRIWYIADAFRAGLSVDGVFNLTNIDRWFLVQIEELVRLEEKVAEVGITGLNADFLRQLKRKGFADARLAKLAGVREAEIRKLRDQYDLHPVYKRVDTCAAEFATDTAYMYSTYEEECEANPSTDREKIMVLGGGPNRIGQGIEFDYCCVHASLALREDGYETIMVNCNPETVSTDYDTSDRLYFEPVTLEDVLEIVRIEKPKGVIVQYGGQTPLKLARALEAAGVPVIGTSPDAIDRAEDRERFQHAVERLKLKQPANATVTAIEMAVEKAKEIGYPLVVRPSYVLGGRAMEIVYDEADLRRYFQTAVSVSNDAPVLLDHFLDDAVEVDVDAICDGEMVLIGGIMEHIEQAGVHSGDSACSLPAYTLSQEIQDVMRQQVQKLAFELQVRGLMNVQFAVKNNEVYLIEVNPRAARTVPFVSKATGVPLAKVAARVMAGKSLAEQGVTKEVIPPYYSVKEVVLPFNKFPGVDPLLGPEMRSTGEVMGVGRTFAEAFAKAQLGSNSTMKKHGRALLSVREGDKERVVDLAAKLLKQGFELDATHGTAIVLGEAGINPRLVNKVHEGRPHIQDRIKNGEYTYIINTTSGRRAIEDSRVIRRSALQYKVHYDTTLNGGFATAMALNADATEKVISVQEMHAQIK
modifications: mutation in small subunit
Take B1: in the experiment with E. coli CPS (effect on GATase-CPS coupling), the “Effect on CPS or CPSII” value is on record as “Uncouples GATase & CPS”.

B2: E. c. E761A: E. coli CPS with K-loop mutation E761A (protein, UniProt P0A6F1 1-382; P00968 2-1073, looked up, variant E761A)
Carbamoyl phosphate synthase … 1: B1 Carbamoyl phosphate synthase … 1 with F359G
Carbamoyl phosphate synthase … 2: B1 Carbamoyl phosphate synthase … 2 with E760A
modifications: mutation in large subunit
Turning to B2, the “Effect on CPS or CPSII” value in the experiment on E. coli CPS (effect on UMP repression) is “Abolishes UMP repression”; in the experiment on E. coli CPS (effect on ornithine activation), “Abolishes ornithine activation”.

B3: E. c. T974A: E. coli CPS with regulatory domain mutation T974A (protein, UniProt P0A6F1 1-382; P00968 2-1073, looked up, variant T974A)
Carbamoyl phosphate synthase … 1: B1 Carbamoyl phosphate synthase … 1 with F359G
Carbamoyl phosphate synthase … 2: B1 Carbamoyl phosphate synthase … 2 with T973A
modifications: mutation in large subunit
Turning to B3, the “Effect on CPS or CPSII” value in the experiment with E. coli CPS (effect on IMP activation) is on record as “Abolishes IMP activation”; with E. coli CPS (effect on UMP repression) it was “Abolishes UMP repression”; with E. coli CPS (effect on ornithine activation) it was “Reduces ornithine activation”.

B4: E. c. H781K: E. coli CPS with K-loop mutation H781K (protein, UniProt P0A6F1 1-382; P00968 2-1073, looked up, variant H781K)
Carbamoyl phosphate synthase … 1: B1 Carbamoyl phosphate synthase … 1 with F359G
Carbamoyl phosphate synthase … 2: B1 Carbamoyl phosphate synthase … 2 with H780K
modifications: mutation in large subunit
As to B4, the results for the “Effect on CPS or CPSII” value with E. coli CPS (effect on UMP repression) and in the experiment with E. coli CPS (effect on ornithine activation) were “Reduces UMP repression” and “Reduces ornithine activation”, respectively.
